Results reported in patent US20230135723A1, “ANTI-CD98 ANTIBODIES AND ANTIBODY DRUG CONJUGATES” (AbbVie Inc., priority 2016, published 2023).
Substitutions are numbered along the chain they refer to. Marks after values point to notes of the source that are not given here.

B1: Ab3-CZ (conjugate)
VH: EVKLVESGGGLVQPGNSLRLSCATSGFTFIDYYMSWVRQSPGKALEWLGFIRNKANGYTTEYSASVKGRFTISRDNSQSILYLQMDTLRAEDSATYYCTRDRPAWFVYWGQGTLVTVSA
VL: DIVMSQSPSSLAVSVGEKVTMSCKSSQSLLYSSNQKNYLAWYQQKPGQSPKLLIYWASTRESGVPDRFTGSGSGTDFTLTFSSVRAEDLAVYYCQQYYSYPYTFGGGTKLEIK
B2: ChAb3- CZ-DAR2 (conjugate)
VH: B1 VH
VL: B1 VL
B3: Ab5-CZ (conjugate)
VH: EVKLVESGGGLVQPGGSLRLSCATSGFTFTDYYMTWVRQPPGKALEWLGFIRNKANGYTTEYSASVKGRFTISRDNSLSILYLQMNTLRAEDSATYYCARASYVNSEGWFAYWGQGTLVTVSA
VL: B1 VL with P46L, F81I, R85K, Q96H, Y102R
B4: ChAb3-CZ (conjugate)
VH: B1 VH
VL: B1 VL
B5: ChAb3- CZ-DAR4 (conjugate)
VH: B1 VH
VL: B1 VL
B6: ChAb5-CZ (conjugate)
VH: B3 VH
VL: B1 VL with P46L, F81I, R85K, Q96H, Y102R
B7: ChAb3- CZ-Broad DAR (conjugate)
VH: B1 VH
VL: B1 VL
B8: ChAb13-CZ (conjugate)
VH: QVQLKESGPGLVQPSQTLSLTCTVSGFSLSSYGVIWVRQPPGKGLEWMGIIWANGNTNYNSALKSRLSISRDTSKSQVYLKMNSLQTEDTATYYCARHYYDGTHYYGYFDYWGQGVMVTVSS
VL: DTVMTQTPSSQAVSAGEKVTMSCKSSQSLLYSENKKKYLAWYQQKPGQSPKLLIYWASTRESGVPDRFIGSGSGTDFTLTISSVQAEDLAVYYCQQYYNFPYTFGAGTKLELK
B9: ChAb11-CZ (conjugate)
VH: EVQLVESGGGLVQPGRSLKLSCAASGFTFSDYAMAWVRQAPKKGLEWVAGIIYDGRGTYYRDSVKGRFTISRDNAKSTLYLQMDSLRSEDTATYYCARQGDGTYYYWGYFDYWGQGVMVTVSS
VL: DIVMTQSPSSLAVSAGETVTINCRSSQSLLSSGNQKNYLAWYQQKPGQSPKLLIYWASTRQSGVPDRFIGSGSGTDFTLTISSVQAEDLAIYYCQQYYDTPYTFGAGTKLELK
B10: ChAb15-CZ (conjugate)
VH: B9 VH with A33T, G50T, G100S
VL: B9 VL with R24K, S31F, S82R, T100S
B11: ChAb12-CZ (conjugate)
VH: B9 VH with G50S, Y109S
VL: B9 VL with R24K, Y93H
B12: ChAb8-CZ (conjugate)
VH: B9 VH with G50S
VL: B9 VL with R24K, S82N

Columns and labels:
[1] = test system: NCI-H146 (human small cell lung cancer) xenograft; test: NCI-H146 xenograft tumor growth inhibition; format: in vivo, SCID-bg mice; settings: for Growth Inhibition TGImax (%): 10 mg/kg/day IP QDx1; for Response Frequency CR (%): 10 mg/kg/day IP QDx1, complete responders; for Response Frequency OR (%): 10 mg/kg/day IP QDx1, overall responders; for Response Frequency PR (%): 10 mg/kg/day IP QDx1, partial responders; for Growth Inhibition TGD (%): 10 mg/kg/day IP QDx1, tumor growth delay to 1 cm^3
Method: The in vivo efficacy of anti-CD98 hybridoma mAb conjugates were tested using Ab3-CZ and Ab5-CZ as examples in NCI-H146 (human small cell lung cancer) xenograft model. The two anti-CD98 hybridoma mAb, Ab3-CZ and Ab5-CZ, were conjugated to the Bcl-xL inhibitor synthon CZ according to Method A. NCI-H146 was obtained from the American Type Culture Collection (ATCC, Manassas, Va.). The cells were cultured as monolayers in RPMI-1640 culture media (Invitrogen, Carlsbad, Calif.) that was supplemented with 10% Fetal Bovine Serum (FBS, Hyclone, Logan, Utah). To generate xenografts, 5×10^6 (NCI-H146) viable cells were inoculated subcutaneously into the right flank of immune deficient female SCID-bg mice (Charles River Laboratories, Wilmington, Mass.). The injection volume was 0.2 mL and composed of Matrigel (BD, Franklin Lakes, N.J.). Tumors were size matched at approximately 212 mm^3. Antibodies and conjugates were formulated in phosphate buffered saline, pH 7.2 and injected intraperitoneally. […] Therapy began within 24 hours after size matching of the tumors. Mice weighed approximately 21 g at the onset of therapy. Tumor volume was estimated two to three times weekly. Measurements of the length (L) and width (W) of the tumor were taken via electronic caliper and the volume was calculated according to the following equation: V=L×W^2/2. Mice were euthanized when tumor volume reached 3,000 mm^3 or skin ulcerations occurred. Eight mice were housed per cage. Food and water were available ad libitum. Mice were acclimated to the animal facilities for a period of at least one week prior to commencement of experiments. Animals were tested in the light phase of a 12-hour light: 12-hour dark schedule (lights on at 06:00 hours). Anti-CD98 conjugates (10 mg/kg) were administered as a single dose (QD×1) intraperitoneally. A human IgG control antibody (MSL109, a humanized IgG1 antibody that binds to cytomegalovirus (CMV) glycoprotein H) was used as a negative control agent.
To refer to efficacy of therapeutic agents, parameters of amplitude (TGImax), durability (TGD) and response frequency (CR, PR, OR) of therapeutic response are used. The efficacy of inhibition of NCI-H146 xenografts growth with CD98-targeted ADCs is illustrated by Table 6, below. In the tables, to refer to efficacy, parameters of amplitude (TGImax) and durability (TGD) of therapeutic response are used. TGImax is the maximum tumor growth inhibition during the experiment. Tumor growth inhibition is calculated by 100*(1−Tv/Cv) where Tv and Cv are the mean tumor volumes of the treated and control groups, respectively. TGD or tumor growth delay is the extended time of a treated tumor needed to reach a volume of 1 cm^3 relative to the control group. TGD is calculated by 100*(Tt/Ct−1) where Tt and Cr are the median time periods to reach 1 cm^3 of the treated and control groups, respectively. Distribution of the response amplitude in a specific group is given by the frequency of complete responders (CR), partial responders (PR), and overall responders (OR). CR is the percentage of mice within a group with a tumor burden of 25 mm^3 for at least three measurements. PR is the percentage of mice within a group with a tumor burden larger than 25 mm^3 but less than one-half of the volume at onset of treatment for at least three measurements. OR is the sum of CR and PR.

[2] = Percent aggregates of ADC by size exclusion chromatography; format: physicochemical; settings: chAb3-CZ DAR2, DAR4 and broad DAR species (Table 12)
Source text: Procedures for DAR and percent aggregate determination are described above in Example 5.

[3] = test system: EBC-1 (human lung squamous cell carcinoma) xenograft; test: EBC-1 xenograft tumor growth inhibition; format: in vivo; settings: 10 mg/kg/day IP QDx1, SCID-bg mice

Row | Molecule | Growth Inhibition TGImax (%) [1] | Response Frequency CR (%) [1] [%] | Response Frequency OR (%) [1] [%] | Response Frequency PR (%) [1] [%] | Growth Inhibition TGD (%) [1] | % Aggregates by SEC [2] [%] | Growth Inhibition TGD (%) [3] | Growth Inhibition TGImax (%) [3] | Response Frequency CR (%) [3] [%] | Response Frequency OR (%) [3] [%] | Response Frequency PR (%) [3] [%]
1 | MSL109: "a humanized IgG1 antibody that binds to cytomegalovirus (CMV) glycoprotein H", "used as a negative control agent" [reference compound] | 0% | 0 | 0 | 0 | 0% |  |  |  |  |  | 
2 | B1 | 79* % | 0 | 50 | 50 | 81* % |  |  |  |  |  | 
3 | B2 |  |  |  |  |  | 0.5 | 32* % | 55* % | 0 | 0 | 0
4 | B3 | 76* % | 0 | 0 | 0 | 76* % |  |  |  |  |  | 
5 | B4 |  |  |  |  |  |  | 37* % | 54* % | 0 | 0 | 0
6 | B5 |  |  |  |  |  | 13.8 |  |  |  |  | 
7 | B6 |  |  |  |  |  |  | 61* % | 70* % | 0 | 0 | 0
8 | B7 |  |  |  |  |  | 12.2 |  |  |  |  | 
9 | B8 |  |  |  |  |  |  | 47* % | 61* % | 0 | 0 | 0
10 | B9 |  |  |  |  |  |  | 37* % | 55* % | 0 | 0 | 0
11 | B10 |  |  |  |  |  |  | 74* % | 70* % | 0 | 0 | 0
12 | B11 |  |  |  |  |  |  | 74* % | 76* % | 0 | 25 | 25
13 | B12 |  |  |  |  |  |  | 42* % | 56* % | 0 | 0 | 0
